In paper PMC11154707, “Polymer-based antibody mimetics (iBodies) target human PD-L1 and function as a potent immune checkpoint blocker” (The Journal of Biological Chemistry, 2024):

Experiments:
[1] = molecular target: T1, human PD-L1, membrane-bound, on hPD-L1-transfected CHO cells (human, UniProt Q9NZQ7 19-290); assay: flow cytometry on cells; dilution series on hPD-L1-transfected and wild-type CHO cells in PBS, 30 min at 4 °C; ATTO488 fluorescence; EC50 from MFI by 4-parameter logistic fit; conditions: one partner purified
T1 construct: The catalogue suffix -CH may mean a C-terminal His tag (surmise); also called CHO PD-L1; source: CHO cells, stably transfected (pCMV3-full-length human PD-L1, hygromycin selection), on cells
T1 sequence (Q9NZQ7 19-290): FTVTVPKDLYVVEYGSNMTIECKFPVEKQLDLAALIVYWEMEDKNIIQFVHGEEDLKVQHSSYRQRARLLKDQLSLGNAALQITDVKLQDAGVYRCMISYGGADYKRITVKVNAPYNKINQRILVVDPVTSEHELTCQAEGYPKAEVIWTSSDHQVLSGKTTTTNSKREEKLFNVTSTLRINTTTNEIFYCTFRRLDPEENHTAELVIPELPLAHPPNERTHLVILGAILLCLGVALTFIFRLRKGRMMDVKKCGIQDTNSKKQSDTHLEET

[2] = molecular target: T2, recombinant human PD-L1 extracellular domain (residues 19–239), His-tagged (human, UniProt Q9NZQ7 19-239); assay: ELISA; 100 ng/well rhPD-L1 coated directly on the plate (TBS, 1 h RT), casein block; dilution series of biotinylated binder in TBS with 0.1% Tween-20, 1 h RT; neutravidin-HRP, chemiluminescence; EC50 by 4-parameter logistic fit; conditions: both partners purified
T2 construct: programmed death-ligand 1 (PD-L1/CD274/B7-H1), human, extracellular domain residues 19-239, subcloned from pCMV3-full-length human PD-L1 into pTT28; probably removed on secretion (surmise); also called rhPD-L1; recombinant extracellular hPD-L1; source: HEK293-6E, transiently transfected, secreted, purified (Ni-NTA Agarose, dialysis); not shown: His8, C-terminal, kept
T2 sequence (Q9NZQ7 19-239): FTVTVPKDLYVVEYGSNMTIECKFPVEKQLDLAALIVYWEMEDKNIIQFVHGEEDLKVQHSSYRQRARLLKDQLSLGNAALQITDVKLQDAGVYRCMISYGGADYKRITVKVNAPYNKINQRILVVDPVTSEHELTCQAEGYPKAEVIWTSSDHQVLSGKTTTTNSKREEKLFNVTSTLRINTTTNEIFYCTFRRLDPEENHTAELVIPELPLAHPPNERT

[3] = molecular target: T2, recombinant human PD-L1 extracellular …; assay: ELISA; 100 ng/well rhPD-L1 coated directly on the plate, casein block; dilution series of ATTO488-WL12 in TBS with 0.1% Tween-20, 1 h RT; read by ATTO488 fluorescence intensity; EC50 by 4-parameter logistic fit; conditions: both partners purified

Row | Binder | EC50 [1] [nM] | EC50 [2] [nM] | EC50 [3] [nM]
1 | YANPHLPWSWXXXCG (other, ClAc on the N-terminus (peptide cyclised, macrocyclic); MeAla at 2; Hyp at 7; Trp(Me) at 10; MeNle at 11 and 12; Orn at 13; C-terminal amide; amino group of the peptide bound to the HPMA copolymer) [iBody 1 (HPMA copolymer carrying WL12, ATTO488 and biotin)] | 6.6 | 0.29 | 
2 | YANPHLPWSWXXXCG (ClAc on the N-terminus (peptide cyclised, macrocyclic); MeAla at 2; Hyp at 7; Trp(Me) at 10; MeNle at 11 and 12; Orn at 13; C-terminal amide; ATTO488 fluorophore (site not told in the text shown)) [ATTO488-WL12] | 270 |  | 5.3
